This data set concerns the molecule itself. Briefly: crystal structure; ERβ LBD-E2 complex at 5 mg/mL; sitting drop, 19 °C; 0.1 M Na-citrate pH 5.5, 10% PEG-4000, 10% isopropanol; no coactivator peptide; 2.5 Å; dimer in the asymmetric unit.

B1: human estrogen receptor beta ligand-binding domain (residues 256-501) bound to 17β-estradiol (domain or fragment, UniProt Q92731 256-501, looked up)
chain: RELLLDALSPEQLVLTLLEAEPPHVLISRPSAPFTEASMMMSLTKLADKELVHMISWAKKIPGFVELSLFDQVRLLESCWMEVLMMGLMWRSIDHPGKLIFAPDLVLDRDEGKCVEGILEIFDMLLATTSRFRELKLQHKEYLCVKAMILLNSSMYPLVTATQDADSSRKLAHLLNAVTDALVWVIAKSGISSQQQSMRLANLLMLLSHVRHASNKGMEHLLNMKCKNVVPVYDLLLEMLNAHVLR
notes: The tag was removed with the SUMO protease Ulp1; also called ERβ LBD; hERβ LBD; source: E. coli BL21 (DE3)RIL, purified (NiNTA, Ulp1 cleavage, Superdex-75 SEC)
For orientation: stoichiometry N means the number of molecules, sites or subunits per partner or assembly. Turning to B1, the “stoichiometry N” value came to 2.

The values above are taken from publication PMC5471280, “An alternative conformation of ERβ bound to estradiol reveals H12 in a stable antagonist position” (Scientific Reports, 2017).
